Assay results published in the supplement of paper PMC10567573.
± gives the standard deviation.

Assay: protein stability index of a GFP-peptide fusion (GPS, HEK-293T) (PSI 1-6); higher = more stable
[1] = treatment: DMSO, c terminus: a fixed tail appended
[2] = treatment: MLN4924 1 uM, 8 h, c terminus: a fixed tail appended
[3] = treatment: DMSO, c terminus: native
[4] = treatment: MLN4924 1 uM, 8 h, c terminus: native
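Note: 24-mer peptide tiles fused after GFP, lentivirally expressed, FACS-sorted into six equal bins by GFP/DsRed ratio, decoded by Illumina sequencing, PSI is the read-weighted mean bin number.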

| Sequence | protein stability index [1] | protein stability index [2] | protein stability index [3] | protein stability index [4] |
| --- | --- | --- | --- | --- |
| SSENFDDYMKEVGVGFATRKVAGM [FABP4] | 3.27 ± 0.1 | 3.55 ± 0.3 |  |  |
| SSGAGSSPPAAPCPPPPGPAAAPE [ZBED3] | 5.36 ± 0.24 | 5.35 ± 0.085 |  |  |
| SSGEDDDFKSCPQGPQGREGLAFL [PWWP2B] | 4.75 ± 0.23 | 4.85 ± 0.18 |  |  |
| SSGQCRRRKRTYWNDSCGEDMEAS [WEE1] | 4.18 ± 0.43 | 4.52 ± 0.43 |  |  |
| SSTTGLFYSAEIICAIEYLHSKEI [PRKX] | 3.13 ± 0.61 | 3.33 ± 1 |  |  |
| SVIKNYEDHFPLLFSEASECMLLV [MAGEA10] | 3.3 ± 0.74 | 2.33 ± 0.046 |  |  |
| SVNDQCGFGVLRLDADAAQRVVYL [TSPAN10] | 2.32 ± 0.27 | 2.28 ± 0.23 |  |  |
| SWAKSIPGFSSLSLSDQMSVLQSV [ESRRA] | 2.5 ± 0.32 | 2.66 ± 0.17 |  |  |
| SWEPLSGPSTPSPVAAQFTSEGTT [FCHO1] | 4.61 ± 0.27 | 4.74 ± 0.22 |  |  |
| SYKNLTLKFHKLVNVTIHFRLKTI [MCOLN1] | 3.21 ± 0.5 | 3.03 ± 0.41 |  |  |
| TADISSHFQEAIDFIDCVREKGGK [DUSP5] | 4.4 ± 0.26 | 4.7 ± 0.22 |  |  |
| TASFRTSKYLLEEWFQNCYARYHQ [TEKT4] | 1.89 ± 0.21 | 2.22 ± 0.24 |  |  |
| TASYPSDGCGADGLRSRVKYGVKT [NOL4L] | 3.84 ± 0.24 | 3.98 ± 0.32 |  |  |
| TAYNKGRLQSSFWIVDKQHVYIGS [PLD5] | 2.49 ± 0.45 | 2 ± 0.27 |  |  |
| TDAPEQFISQVTVLKYFSHYMEEN [PLK2] | 2.09 ± 0.28 | 2.15 ± 0.23 |  |  |
| TDDQLLALLPSLSHCSQLTTLSFY [PRAME] | 2.26 ± 0.37 | 2.05 ± 0.3 |  |  |
| TDVQKKKLVDAIVSGDTSKLMKIL [RIPK4] | 2.78 ± 0.73 | 2.77 ± 0.31 |  |  |
| TECEPSELFQLQTYSLPPFLKAVL [CDS1] | 2.65 ± 0.22 | 2.56 ± 0.22 |  |  |
| TELLAKITNTDVDCLKACQEQIEA [CCND2] | 4.45 ± 0.046 | 4.61 ± 0.32 |  |  |
| TENEEQTQLTQNAVSCPYLPSNLL [KCNA4] | 4.49 ± 0.27 | 4.63 ± 0.12 |  |  |
| TEPPQNPVTPLGLQNEVPPQPDPV [SERTAD3] | 5.32 ± 0.26 | 5.48 ± 0.24 |  |  |
| TFDNDYSLSELLSQLDSGVSQAVE [RIPK4] | 4 ± 0.074 | 4.1 ± 0.26 |  |  |
| TFEVPEENTAETITRVLYEVFIEW [ZBED1] | 2.07 ± 0.4 | 2 ± 0.47 |  |  |

| Sequence | protein stability index [1] | protein stability index [2] | protein stability index [3] | protein stability index [4] |
| --- | --- | --- | --- | --- |
| TFEYTLLQPPHESRPQPIYYGFSE [ADAMTSL2] | 2.47 ± 0.28 | 2.58 ± 0.51 |  |  |
| TFLTVTDLIGLPWVCFIYTIMSLA [SLC2A12] | 3.38 ± 0.45 | 2.84 ± 0.58 |  |  |
| TFQNSVFVATFLRYAVVLNATWLV [SCD] | 3.01 ± 0.34 | 3.43 ± 0.43 |  |  |
| TGKWYELQDLQVTDILPQMITLSE [USP39] | 2.51 ± 0.29 | 2.85 ± 0.18 |  |  |
| TIFEKENFIGRQWEISDDYPSLQA [CRYBA1] | 3.26 ± 0.29 | 3 ± 0.32 |  |  |
| TIQKQLKDHSCKDNIREAFQIYDK [EFHC1] | 3.22 ± 0.13 | 3.13 ± 0.13 |  |  |
| TIYGKTFRVVDCDQFTQVFLESQG [EFHC1] | 2.19 ± 0.25 | 2.29 ± 0.39 |  |  |
| TKFGLFTPGSRIESILMSLPLTAR [CPOX] | 2.21 ± 0.3 | 2.2 ± 0.28 |  |  |
| TLIDGGEHYWEVRYEPDSKAFGVG [FSD1] | 2.65 ± 0.27 | 2.86 ± 0.39 |  |  |
| TLPPASRFIIIFEQIRFVMKAHSF [SOAT1] | 2.31 ± 0.48 | 2.57 ± 0.74 |  |  |
| TLQDLVFDECGITDDQLLALLPSL [PRAME] | 2.84 ± 0.26 | 3.03 ± 0.34 |  |  |
| TLSEAYIQIWKRRDNDETNQQGA [USP39] |  |  | 2.52 ± 0.65 | 3.24 ± 0.42 |
| TMSRSLDGASVNENHEIYMKDSMS [EPB41L3] | 5 ± 0.17 | 4.72 ± 0.43 |  |  |
| TNIRLPNVPSSSLPAQPNRKPGMS [CHMP4C] | 4.66 ± 0.28 | 4.51 ± 0.45 |  |  |
| TNNPRFDKMEGNPICVQIPWDKNP [CRY1] | 3.47 ± 0.3 | 3.69 ± 0.25 |  |  |
| TNVKFLAITTDCLQILAYGNQESK [CTNNB1] | 2 ± 0.2 | 2.17 ± 0.16 |  |  |
| TPDTRHPCSLGSSLVADYSDSESE [YJU2B] | 5.39 ± 0.23 | 5.59 ± 0.25 |  |  |
| TPLEPDAKDLPCDSKPESALGAPS [TBX5] | 5.41 ± 0.29 | 5.36 ± 0.23 |  |  |
| TPSSYAPSHPPRPLLPLDMQGNQI [ZBTB22] | 4.14 ± 0.1 | 4.3 ± 0.14 |  |  |
| TQSVSECITEDGRTVAVGDIVWGK [PWWP2B] | 4.09 ± 0.22 | 4.25 ± 0.21 |  |  |
| TREGFGHSTSLKVPLARSLQISEE [LCOR] | 3.39 ± 0.44 | 3.82 ± 0.22 |  |  |
| TRIEKRIVITGDADIDHDQALAQA [EPB41L3] | 4.48 ± 0.27 | 4.72 ± 0.25 |  |  |
| TRILDGGNPFLDVPQALSATTYKH [PSD2] | 3.62 ± 0.17 | 3.73 ± 0.21 |  |  |

| Sequence | protein stability index [1] | protein stability index [2] | protein stability index [3] | protein stability index [4] |
| --- | --- | --- | --- | --- |
| TSFEPEALGNLVEGMDFHRFYFEN [CAMK2B] | 3.14 ± 0.27 | 3.18 ± 0.26 |  |  |
| TSFFDSDEDDSTSRFSSSTEQSSA [DVL3] | 5.34 ± 0.085 | 5.25 ± 0.22 |  |  |
| TSSQKALMLELKSLQEEPVEGFRI [UBE2R2] | 3.11 ± 0.31 | 3.3 ± 0.24 |  |  |
| TTSWGLLSLGALVALCWQLGLLFE [SCNN1D] | 2.11 ± 0.13 | 2.13 ± 0.37 |  |  |
| TVRGATGIFPLSFVKILKDFPEED [NCF4] | 3.43 ± 0.51 | 3.57 ± 0.4 |  |  |
| TYRRLLEDGEDFNLGDALDSSNSM [KRT18] | 4.29 ± 0.14 | 4.52 ± 0.21 |  |  |
| VACGMVHLLIPELGACVAPGGNLI [DNAAF3] | 2.78 ± 0.27 | 3.11 ± 0.26 |  |  |
| VAPLADGKVAVGQDDLTVVLNEEG [VPS39] | 5.46 ± 0.18 | 5.59 ± 0.17 |  |  |
| VCLEYLKEPVIIECGHNFCKACIT [TRIM39] | 2.38 ± 0.55 | 2.28 ± 0.29 |  |  |
| VDPDNVVLCLLAADEDDDRDVALQ [GADD45A] | 4.63 ± 0.38 | 4.77 ± 0.08 |  |  |
| VEFVRHGDIIRLEHKETSRNLHSH [POMT2] | 3.02 ± 0.27 | 3.04 ± 0.25 |  |  |
| VETLLRHGAHINLQSLKFQGGHGP [RIPK4] | 2.63 ± 0.39 | 3.11 ± 0.24 |  |  |
| VEVDTAPTVDLNQVLNETRSQYEA [KRT34] | 5.2 ± 0.17 | 5 ± 0.32 |  |  |
| VFHLPFYSSNQLHHFFCDIAPVLK [OR10K2] | 2.23 ± 0.48 | 2.12 ± 0.15 |  |  |
| VFLASKVEEFGVVSNTRLIAAATS [CCNC] | 2.46 ± 0.68 | 2.24 ± 0.35 |  |  |
| VGELNGYLRDSSPAPCADGPAGGL [PWWP2B] | 4.29 ± 0.23 | 4.16 ± 0.068 |  |  |
| VGFMWRQRGRVISLWERLEFVNGW [MCOLN1] | 2.59 ± 0.65 | 3.05 ± 0.62 |  |  |
| VGNISKDLGLAPRELAERGVRIVS [PCDHGA10] | 3.57 ± 0.29 | 3.75 ± 0.42 |  |  |
| VGSGGRRDSTARRPRPQGRSVSEP [RTN2] | 5.09 ± 0.04 | 5.19 ± 0.15 |  |  |
| VGTESQGRDWRHLPTITSELSGAP [PXN] | 4.21 ± 0.23 | 4.21 ± 0.2 |  |  |
| VHEFCAGRECQPRWETSSWSECSR [ADAMTSL2] | 2.42 ± 0.28 | 2.85 ± 0.53 |  |  |
| VHGDPAVWWVSQFVKYLIRPQPWL [FUT8] | 2.95 ± 0.34 | 3.21 ± 0.6 |  |  |
| VHYMIHEPEPHILLFRRPLPKKPK [CKS1B] | 2.39 ± 0.23 | 2.57 ± 0.35 |  |  |

| Sequence | protein stability index [1] | protein stability index [2] | protein stability index [3] | protein stability index [4] |
| --- | --- | --- | --- | --- |
| VIWDFLTRGIAKIISAHIHPVCSL [RBBP5] | 3.31 ± 0.46 | 3.3 ± 0.35 |  |  |
| VKEGGSYGFSLKTVQGKKGVYMTD [PDZK1] | 3.39 ± 0.41 | 3.08 ± 0.53 |  |  |
| VKGSRVTVMEKCSDGWWRGSYNGQ [NCK2] | 2.13 ± 0.47 | 2.29 ± 0.34 |  |  |
| VLDFDFEKLCSISLSHINAYACLV [USP39] | 2.83 ± 0.59 | 2.56 ± 0.53 |  |  |
| VLLNSLQQYRQDQRDGSKSEDELD [CCND2] | 4.32 ± 0.18 | 4.15 ± 0.52 |  |  |
| VLPPIHAYGNRTECRNPQELESIR [FEM1B] | 4.14 ± 0.28 | 4 ± 0.21 |  |  |
| VLVNVLQAIYVIDFFWNETWYLKT [DHCR7] | 3.09 ± 0.25 | 3.22 ± 0.27 |  |  |
| VNPWIIIGGVATVVCQPNEFIMPD [SEPHS2] | 2.67 ± 0.38 | 3.05 ± 0.81 |  |  |
| VNQDILENKESWDKILALVPETIH [PRIM1] | 3.16 ± 0.19 | 2.85 ± 0.32 |  |  |
| VPERLLVVLDMEEGTLGYAIGGTY [SPSB2] | 2.69 ± 0.74 | 2.35 ± 0.56 |  |  |
| VPISVTGIAQVKIQGQNKEMLAAA [FLOT1] | 3.52 ± 0.27 | 3.61 ± 0.13 |  |  |
| VPSKPPMSLEPQNGTYAGPAPAFQ [ANKRD40] | 4.12 ± 0.41 | 4.25 ± 0.14 |  |  |
| VPVDTGVAARTPAVEGLTEAEEEE [TPD52L2] | 5.51 ± 0.15 | 5.4 ± 0.13 |  |  |
| VQIYNLSQNIQEDDLQQLQLFTEY [ATL3] | 2.44 ± 0.35 | 2.28 ± 0.27 |  |  |
| VQLSDEMFVFQDGRWVNENCRLQS [CBY2] | 3.06 ± 0.26 | 3.03 ± 0.34 |  |  |
| VRLHDSISEEGHHYLIFDLVTGGE [CAMK2A] | 2.23 ± 0.4 | 2.26 ± 0.18 |  |  |
| VRQINRKTPVPGKARKKSSCQLL [RAP1B] |  |  | 4.5 ± 0.27 | 4.44 ± 0.18 |
| VRVPNGGGGGGGLPISTVREVALL [CDK4] | 2.5 ± 0.33 | 2.63 ± 0.23 |  |  |
| VRWLRPVHRQLGEANEEFALRVQQ [AUP1] | 3.1 ± 0.25 | 3.02 ± 0.19 |  |  |
| VSQLYPESIVPIPSSNEEIRLVDD [INTS4] | 4.92 ± 0.18 | 4.88 ± 0.081 |  |  |
